According to IntAct's records for PubMed 36931259:

B1: 14-3-3 protein sigma (Homo sapiens), P31947 (parent)
chain: MERASLIQKAKLAEQAERYEDMAAFMKGAVEKGEELSCEERNLLSVAYKNVVGGQRAAWRVLSSIEQKSNEEGSEEKGPEVREYREKVETELQGVCDTVLGLLDSHLIKEAGDAESRVFYLKMKGDYYRYLAEVATGDDKKRIIDSARSAYQEAMDISKKEMPPTNPIRLGLALNFSVFHYEIANSPEEAISLAKTTFDEAMADLHTLSEDSYKDSTLIMQLLRDNLTLWTADNAGEEGGEAPQEPQS
partner: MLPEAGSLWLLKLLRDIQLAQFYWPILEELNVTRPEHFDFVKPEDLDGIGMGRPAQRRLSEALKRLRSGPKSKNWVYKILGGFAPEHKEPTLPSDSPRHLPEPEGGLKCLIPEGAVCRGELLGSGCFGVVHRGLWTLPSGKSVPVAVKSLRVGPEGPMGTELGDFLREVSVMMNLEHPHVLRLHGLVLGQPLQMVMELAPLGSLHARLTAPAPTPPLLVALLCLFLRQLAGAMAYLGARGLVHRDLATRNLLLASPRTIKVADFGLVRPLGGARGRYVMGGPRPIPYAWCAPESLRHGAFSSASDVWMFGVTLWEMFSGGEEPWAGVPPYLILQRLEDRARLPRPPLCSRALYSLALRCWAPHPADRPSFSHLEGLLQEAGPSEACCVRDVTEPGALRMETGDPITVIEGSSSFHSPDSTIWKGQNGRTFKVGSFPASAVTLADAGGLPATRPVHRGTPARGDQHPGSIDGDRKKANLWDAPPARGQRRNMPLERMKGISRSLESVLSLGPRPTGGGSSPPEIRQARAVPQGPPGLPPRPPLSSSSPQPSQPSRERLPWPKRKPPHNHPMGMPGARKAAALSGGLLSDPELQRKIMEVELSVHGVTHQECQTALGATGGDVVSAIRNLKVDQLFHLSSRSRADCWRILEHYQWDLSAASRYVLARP
B2: 14-3-3 protein sigma (Homo sapiens), P31947 (parent)
chain: B1 chain
partner: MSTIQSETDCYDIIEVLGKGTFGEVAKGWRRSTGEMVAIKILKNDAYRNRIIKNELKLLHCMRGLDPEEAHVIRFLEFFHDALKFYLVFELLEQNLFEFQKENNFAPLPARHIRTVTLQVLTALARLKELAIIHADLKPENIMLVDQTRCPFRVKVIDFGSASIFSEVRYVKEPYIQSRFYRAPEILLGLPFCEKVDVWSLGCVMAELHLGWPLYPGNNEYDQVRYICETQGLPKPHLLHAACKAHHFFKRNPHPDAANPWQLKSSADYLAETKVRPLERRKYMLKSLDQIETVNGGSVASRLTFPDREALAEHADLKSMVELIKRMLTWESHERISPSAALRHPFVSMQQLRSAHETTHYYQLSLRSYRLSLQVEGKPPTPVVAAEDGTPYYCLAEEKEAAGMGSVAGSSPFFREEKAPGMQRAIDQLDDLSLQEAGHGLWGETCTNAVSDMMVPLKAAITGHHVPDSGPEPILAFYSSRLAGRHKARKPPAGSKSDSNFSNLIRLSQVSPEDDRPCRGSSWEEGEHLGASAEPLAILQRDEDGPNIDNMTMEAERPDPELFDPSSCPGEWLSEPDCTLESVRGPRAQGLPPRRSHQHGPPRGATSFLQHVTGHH
B3: 14-3-3 protein sigma (Homo sapiens), P31947 (parent)
chain: B1 chain
partner: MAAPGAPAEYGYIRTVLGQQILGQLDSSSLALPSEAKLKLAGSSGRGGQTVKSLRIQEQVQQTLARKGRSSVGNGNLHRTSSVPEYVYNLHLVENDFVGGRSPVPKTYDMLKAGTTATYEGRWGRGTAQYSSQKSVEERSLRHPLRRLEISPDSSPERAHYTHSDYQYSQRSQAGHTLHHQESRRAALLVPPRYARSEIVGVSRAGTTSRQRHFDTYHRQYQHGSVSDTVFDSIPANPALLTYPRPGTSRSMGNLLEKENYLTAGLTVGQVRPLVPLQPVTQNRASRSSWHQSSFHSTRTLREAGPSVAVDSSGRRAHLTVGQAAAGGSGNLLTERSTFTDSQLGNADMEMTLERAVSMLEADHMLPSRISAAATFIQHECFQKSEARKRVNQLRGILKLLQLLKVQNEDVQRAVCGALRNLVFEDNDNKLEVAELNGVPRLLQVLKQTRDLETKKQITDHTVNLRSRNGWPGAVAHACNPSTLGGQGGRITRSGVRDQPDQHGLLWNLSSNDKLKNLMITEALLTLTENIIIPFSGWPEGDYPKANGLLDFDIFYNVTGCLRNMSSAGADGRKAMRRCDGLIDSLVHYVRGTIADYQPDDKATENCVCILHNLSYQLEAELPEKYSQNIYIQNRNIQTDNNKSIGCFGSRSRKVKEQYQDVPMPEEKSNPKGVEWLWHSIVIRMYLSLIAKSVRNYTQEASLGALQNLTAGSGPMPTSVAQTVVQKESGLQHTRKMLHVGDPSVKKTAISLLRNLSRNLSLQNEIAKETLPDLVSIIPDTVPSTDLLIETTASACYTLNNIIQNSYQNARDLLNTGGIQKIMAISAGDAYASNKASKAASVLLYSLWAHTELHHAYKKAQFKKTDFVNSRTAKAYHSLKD
B4: 14-3-3 protein sigma (Homo sapiens), P31947 (parent)
chain: B1 chain
partner: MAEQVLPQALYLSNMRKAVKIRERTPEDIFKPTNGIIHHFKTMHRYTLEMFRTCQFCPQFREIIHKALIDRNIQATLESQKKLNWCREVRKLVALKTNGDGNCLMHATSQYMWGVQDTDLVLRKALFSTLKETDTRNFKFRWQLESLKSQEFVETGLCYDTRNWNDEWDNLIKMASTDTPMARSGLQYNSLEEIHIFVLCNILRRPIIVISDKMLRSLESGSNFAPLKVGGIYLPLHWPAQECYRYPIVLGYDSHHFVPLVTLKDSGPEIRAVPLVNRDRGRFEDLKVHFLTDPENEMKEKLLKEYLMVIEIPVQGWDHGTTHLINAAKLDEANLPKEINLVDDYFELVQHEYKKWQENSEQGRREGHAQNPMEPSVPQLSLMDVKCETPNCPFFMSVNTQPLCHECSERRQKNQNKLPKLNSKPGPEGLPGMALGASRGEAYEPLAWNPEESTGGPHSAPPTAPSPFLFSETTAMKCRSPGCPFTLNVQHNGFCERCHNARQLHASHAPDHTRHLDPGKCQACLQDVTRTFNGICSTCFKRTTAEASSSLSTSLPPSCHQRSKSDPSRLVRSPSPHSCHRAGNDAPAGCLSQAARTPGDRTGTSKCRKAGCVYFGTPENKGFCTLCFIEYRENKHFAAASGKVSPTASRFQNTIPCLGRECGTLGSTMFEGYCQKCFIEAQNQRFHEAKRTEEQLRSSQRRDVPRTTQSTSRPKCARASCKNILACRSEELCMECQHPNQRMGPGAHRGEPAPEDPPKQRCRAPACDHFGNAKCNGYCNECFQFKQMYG
B5: 14-3-3 protein sigma (Homo sapiens), P31947 (parent)
chain: B1 chain

Variants of: B1
Conditions: with tnk1_human TNK1, Q13470

Variant | effect of a mutation on the interaction
K49E;R56E;V178D | decreasing interaction strength

Variants of: B2
Conditions: with hipk4_human HIPK4, Q8NE63

Variant | effect of a mutation on the interaction
K49E;R56E;V178D | decreasing interaction strength

Variants of: B3
Conditions: with pkp2_human PKP2, Q99959

Variant | effect of a mutation on the interaction
K49E;R56E;V178D | decreasing interaction strength

Variants of: B4
Conditions: with tnap3_human TNFAIP3, P21580

Variant | effect of a mutation on the interaction
K49E;R56E;V178D | decreasing interaction strength

Variants of: B5
Conditions: with gsk3a_human GSK3A

Variant | effect of a mutation on the interaction
K49D;R56D;V178D | decreasing interaction strength
